Results published in patent publication US20260049138A1 (Chugai, published 2026).
Numbering of substitutions follows the chain as printed. Numbers in names are those of the source.

B1: GLS3000 T92P one-arm antibody (antibody, human IgG1, kappa, L234A L235A, N297A, name in Kabat numbering)
heavy: QVQLVESGGGVVQPGRSLRLSCAASGFTFSNAWMHWVRQAPGKGLEWVAQIKAKSNNYATYYAESVKGRFTISRDDSKNSLYLQMNSLKTEDTAVYYCRYVHYGAYYGVDAWGQGTTVTVSSASTKGPSVFPLAPSSKSTSGGTAALGCLVKDYFPEPVTVSWNSGALTSGVHTFPAVLQSSGLYSLSSVVTVPSSSLGTQTYICNVNHKPSNTKVDKKVEPKSCDKTHTCPPCPAPEAAGGPSVFLFPPKPKDTLMISRTPEVTCVVVDVSHEDPEVKFNWYVDGVEVHNAKTKPREEQYASTYRVVSVLTVLHQDWLNGKEYKCKVSNKALPAPIEKTISKAKGQPREPQVYTLPPSRCELTKNQVSLSCAVKGFYPSDIAVEWESNGQPENNYKTTPPVLDSDGSFFLVSKLTVDKSRWQQGNVFSCSVMHEALHNHYTQKSLSLSPDYKDDDDK
chain: EPKSSDKTHTCPPCPAPELLGGPSVFLFPPKPKDTLMISRTPEVTCVVVDVSHEDPEVKFNWYVDGVEVHNAKTKPREEQYNSTYRVVSVLTVLHQDWLNGKEYKCKVSNKALPAPIEKTISKAKGQPREPQVCTLPPSRDELTKNQVSLWCLVKGFYPSDIAVEWESNGQPENNYKTTPPVLDSDGSFFLYSKLTVDKSRWQQGNVFSCSVMHEALHNRYTQKSLSLSP
light: DIVMTQSPLSLPVTPGEPASISCRSSQSLVHSNRNTYLHWYQQKPGQAPRLLIYKVSNRFSGVPDRFSGSGSGTDFTLKISRVEAEDVGVYYCGQGPQVPYTFGQGTKLEIKRTVAAPSVFIFPPSDEQLKSGTASVVCLLNNFYPREAKVQWKVDNALQSGNSQESVTEQDSKDSTYSLSSTLTLSKADYEKHKVYACEVTHQGLSSPVTKSFNRGEC
B2: GLS3000 V94N one-arm antibody (antibody, human IgG1, kappa, L234A L235A, N297A, name in Kabat numbering)
heavy: B1 heavy
chain: B1 chain
light: B1 light with P97T, V99N
B3: GLS3000 V94A one-arm antibody (antibody, human IgG1, kappa, L234A L235A, N297A, name in Kabat numbering)
heavy: B1 heavy
chain: B1 chain
light: B1 light with P97T, V99A
B4: GLS3000 V51I one-arm antibody (antibody, human IgG1, kappa, L234A L235A, N297A, name in Kabat numbering)
heavy: B1 heavy
chain: B1 chain
light: B1 light with V56I, P97T
B5: GLS3000 V27cP one-arm antibody (antibody, human IgG1, kappa, L234A L235A, N297A, name in Kabat numbering)
heavy: B1 heavy
chain: B1 chain
light: B1 light with V30P, P97T
B6: GLS3000 V94F one-arm antibody (antibody, human IgG1, kappa, L234A L235A, N297A, name in Kabat numbering)
heavy: B1 heavy
chain: B1 chain
light: B1 light with P97T, V99F
B7: GLS3000 V51P one-arm antibody (antibody, human IgG1, kappa, L234A L235A, N297A, name in Kabat numbering)
heavy: B1 heavy
chain: B1 chain
light: B1 light with V56P, P97T
B8: GLS3000 T97P one-arm antibody (antibody, human IgG1, kappa, L234A L235A, N297A, name in Kabat numbering)
heavy: B1 heavy
chain: B1 chain
light: B1 light with P97T, T102P
B9: GLS3000 V94G one-arm antibody (antibody, human IgG1, kappa, L234A L235A, N297A, name in Kabat numbering)
heavy: B1 heavy
chain: B1 chain
light: B1 light with P97T, V99G
B10: GLS3000 V27cL one-arm antibody (antibody, human IgG1, kappa, L234A L235A, N297A, name in Kabat numbering)
heavy: B1 heavy
chain: B1 chain
light: B1 light with V30L, P97T
B11: GLS3000 V51E one-arm antibody (antibody, human IgG1, kappa, L234A L235A, N297A, name in Kabat numbering)
heavy: B1 heavy
chain: B1 chain
light: B1 light with V56E, P97T
B12: GLS3000 V94S one-arm antibody (antibody, human IgG1, kappa, L234A L235A, N297A, name in Kabat numbering)
heavy: B1 heavy
chain: B1 chain
light: B1 light with P97T, V99S
B13: GLS3000 V27cD one-arm antibody (antibody, human IgG1, kappa, L234A L235A, N297A, name in Kabat numbering)
heavy: B1 heavy
chain: B1 chain
light: B1 light with V30D, P97T
B14: GLS3000 V94M one-arm antibody (antibody, human IgG1, kappa, L234A L235A, N297A, name in Kabat numbering)
heavy: B1 heavy
chain: B1 chain
light: B1 light with P97T, V99M
B15: GLS3000 V27cI one-arm antibody (antibody, human IgG1, kappa, L234A L235A, N297A, name in Kabat numbering)
heavy: B1 heavy
chain: B1 chain
light: B1 light with V30I, P97T
B16: GLS3000 V94E one-arm antibody (antibody, human IgG1, kappa, L234A L235A, N297A, name in Kabat numbering)
heavy: B1 heavy
chain: B1 chain
light: B1 light with P97T, V99E
B17: GLS3000 V94P one-arm antibody (antibody, human IgG1, kappa, L234A L235A, N297A, name in Kabat numbering)
heavy: B1 heavy
chain: B1 chain
light: B1 light with P97T, V99P
B18: GLS3000 V94W one-arm antibody (antibody, human IgG1, kappa, L234A L235A, N297A, name in Kabat numbering)
heavy: B1 heavy
chain: B1 chain
light: B1 light with P97T, V99W
B19: GLS3000 V94R one-arm antibody (antibody, human IgG1, kappa, L234A L235A, N297A, name in Kabat numbering)
heavy: B1 heavy
chain: B1 chain
light: B1 light with P97T, V99R
B20: GLS3000 V94K one-arm antibody (antibody, human IgG1, kappa, L234A L235A, N297A, name in Kabat numbering)
heavy: B1 heavy
chain: B1 chain
light: B1 light with P97T, V99K
B21: GLS3000 V94D one-arm antibody (antibody, human IgG1, kappa, L234A L235A, N297A, name in Kabat numbering)
heavy: B1 heavy
chain: B1 chain
light: B1 light with P97T, V99D
B22: GLS3000 V94I one-arm antibody (antibody, human IgG1, kappa, L234A L235A, N297A, name in Kabat numbering)
heavy: B1 heavy
chain: B1 chain
light: B1 light with P97T, V99I
B23: GLS3000 V51G one-arm antibody (antibody, human IgG1, kappa, L234A L235A, N297A, name in Kabat numbering)
heavy: B1 heavy
chain: B1 chain
light: B1 light with V56G, P97T
B24: GLS3000 V94H one-arm antibody (antibody, human IgG1, kappa, L234A L235A, N297A, name in Kabat numbering)
heavy: B1 heavy
chain: B1 chain
light: B1 light with P97T, V99H
B25: GLS3000 T92Y one-arm antibody (antibody, human IgG1, kappa, L234A L235A, N297A, name in Kabat numbering)
heavy: B1 heavy
chain: B1 chain
light: B1 light with P97Y
B26: GLS3000 V27cE one-arm antibody (antibody, human IgG1, kappa, L234A L235A, N297A, name in Kabat numbering)
heavy: B1 heavy
chain: B1 chain
light: B1 light with V30E, P97T
B27: GLS3000 V94L one-arm antibody (antibody, human IgG1, kappa, L234A L235A, N297A, name in Kabat numbering)
heavy: B1 heavy
chain: B1 chain
light: B1 light with P97T, V99L
B28: GLS3000 V51D one-arm antibody (antibody, human IgG1, kappa, L234A L235A, N297A, name in Kabat numbering)
heavy: B1 heavy
chain: B1 chain
light: B1 light with V56D, P97T
B29: GLS3000 V94T one-arm antibody (antibody, human IgG1, kappa, L234A L235A, N297A, name in Kabat numbering)
heavy: B1 heavy
chain: B1 chain
light: B1 light with P97T, V99T
B30: GLS3000 V27cS one-arm antibody (antibody, human IgG1, kappa, L234A L235A, N297A, name in Kabat numbering)
heavy: B1 heavy
chain: B1 chain
light: B1 light with V30S, P97T
B31: GLS3000 V94Y one-arm antibody (antibody, human IgG1, kappa, L234A L235A, N297A, name in Kabat numbering)
heavy: B1 heavy
chain: B1 chain
light: B1 light with P97T, V99Y
B32: GLS3000 T92S one-arm antibody (antibody, human IgG1, kappa, L234A L235A, N297A, name in Kabat numbering)
heavy: B1 heavy
chain: B1 chain
light: B1 light with P97S
B33: GLS3000 V94Q one-arm antibody (antibody, human IgG1, kappa, L234A L235A, N297A, name in Kabat numbering)
heavy: B1 heavy
chain: B1 chain
light: B1 light with P97T, V99Q
B34: GLS3000 V27cY one-arm antibody (antibody, human IgG1, kappa, L234A L235A, N297A, name in Kabat numbering)
heavy: B1 heavy
chain: B1 chain
light: B1 light with V30Y, P97T

Biological target: T1, CD3ε homodimer protein (human, UniProt P07766 23-126, limits assumed)
T1 construct: also called CD3 (CD3ε)
T1 sequence (P07766 23-126 limits assumed): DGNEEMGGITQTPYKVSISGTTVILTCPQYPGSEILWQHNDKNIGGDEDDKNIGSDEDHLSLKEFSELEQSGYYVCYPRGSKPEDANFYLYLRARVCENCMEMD
Experiment: SPR Biacore T200, CD3ε homodimer on chip;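 further: Light-chain single-residue variant antibodies injected over amine-coupled CD3ε homodimer on a CM4 chip at 25 °C, bound amount divided by that of the GLS3000-containing antibody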

Row | Binder | ratio of amount bound vs unaltered GLS3000
1 | B1 | 0.26
2 | B2 | 1.05
3 | B3 | 1.05
4 | B4 | 0.81
5 | B5 | 0.3
6 | B6 | 0.71
7 | B7 | 0.32
8 | B8 | 0.31
9 | B9 | 0.48
10 | B10 | 0.84
11 | B11 | 0.64
12 | B12 | 0.93
13 | B13 | 0.32
14 | B14 | 0.44
15 | B15 | 0.96
16 | B16 | 0.5
17 | B17 | 1.26

Row | Binder | ratio of amount bound vs unaltered GLS3000
18 | B18 | 0.58
19 | B19 | 0.66
20 | B20 | 0.57
21 | B21 | 0.89
22 | B22 | 0.66
23 | B23 | 0.84
24 | B24 | 0.78
25 | B25 | 0.33
26 | B26 | 0.61
27 | B27 | 0.44
28 | B28 | 0.33
29 | B29 | 0.93
30 | B30 | 0.51
31 | B31 | 0.63
32 | B32 | 0.96
33 | B33 | 0.76
34 | B34 | 0.77
